# Reference: the RNAGym collection of RNA variant scans (doi:10.7554/elife.80360)
# B1: CPEB3 Ribozyme (parent)
# chain: GGGGGCCACAGCAGAAGCGUUCACGUCGCGGCCCCUGUCAGAUUCUGGUGAAUCUGCGAAUUCUGCUGU
# Variants of: B1
# Experiment: self-cleavage, relative activity (ratio to wild type); higher = more cleavage; co-transcriptional
row,Variant,self-cleavage
1,C18U A23G,0.715
2,C18U A23C,0.746
3,C18U A23U,0.877
4,C18U C35G,0.281
5,C18U C35A,0.24
6,G19A C57A,0.133
7,G19A C57U,0.178
8,G19A C57G,0.137
9,G19A C24G,0.159
10,G19A C24U,0.16
11,G19A C24A,0.124
12,G19A A51U,0.245
13,C18U C32A,0.381
14,C18U C32U,0.87
15,C18U C63A,0.284
16,C18U C63U,0.678
17,C18U C63G,0.306
18,G19A G25A,0.0763
19,G19A G25U,0.164
20,G19A G25C,0.151
21,G19A A40C,0.123
22,G19A A40U,0.147
23,C18U A60G,0.809
24,G19A A60C,0.0899

row,Variant,self-cleavage
1,G19A A60U,0.0747
2,G19A C29U,0.0995
3,G19A C29G,0.153
4,C18U U62A,0.402
5,C18U U62C,0.572
6,C18G U69C,0.352
7,C18G U69A,0.26
8,C18G U69G,0.252
9,G19A C33A,0.126
10,G19A C33U,0.13
11,C18U G58U,0.942
12,C18U G58A,0.801
13,C18U U67C,0.802
14,C18U U67A,0.862
15,C18U G25U,0.17
16,C18U G25A,0.157
17,C18U G25C,0.153
18,C18U C29U,0.0827
19,C18U C29A,0.161
20,C18U,0.926
21,C18U C22U,0.108
22,C18U C22G,0.197
23,C18U A52C,0.759
24,C18U A52G,0.923

row,Variant,self-cleavage
1,C18U A52U,0.87
2,G19A C22G,0.148
3,G19A C22U,0.196
4,C18U G50A,0.906
5,C18U G30C,0.222
6,C18U G30U,0.192
7,G19A C35G,0.183
8,C18U G48C,0.903
9,C18U G48U,0.934
10,C18U G65C,0.363
11,C18U G65A,0.332
12,C18U A40C,0.197
13,C18U A51G,0.853
14,C18U A51U,0.851
15,C18U U55A,0.447
16,C18U U55C,0.446
17,C18U U69C,1.04
18,C18U U69G,1
19,C18U U36A,0.109
20,C18U U36C,0.562
21,C18U C66U,0.704
22,C18U C66A,0.297
23,G19A A59G,0.188
24,G19A A59C,0.194

row,Variant,self-cleavage
1,C18U U61C,0.267
2,C18U U61A,0.467
3,C18U U61G,0.312
4,C18U G68A,0.948
5,C18U G68C,0.924
6,C18U G68U,0.943
7,C18U G28A,0.909
8,C18U G47C,0.911
9,C18U G47A,0.975
10,C18U G47U,0.928
11,C18U U26G,0.697
12,C18U U26C,0.732
13,C18U A59G,0.793
14,G19A C54U,0.134
15,G19A C54A,0.163
16,C18U G19U,0.142
17,C18U G19C,0.168
18,C18U C27A,0.198
19,C18U C27G,0.194
20,C18U C27U,0.121
21,C18U C39A,0.387
22,C18U C39U,0.551
23,C18U A42C,0.556
24,C18U A42G,0.579

row,Variant,self-cleavage
1,C18U U20A,0.108
2,C18U U20C,0.135
3,C18U G37A,0.193
4,C18U G37C,0.13
5,G19A C45G,0.194
6,G19A C32A,0.174
7,C18G U61C,0.209
8,C18G U61G,0.144
9,C18U U38G,0.116
10,C18U U38C,0.694
11,C18U U38A,0.671
12,C18G U53C,0.0868
13,C18G U53G,0.199
14,C18G U53A,0.177
15,C18G U64C,0.1
16,C18G U64G,0.159
17,C18G U64A,0.228
18,C18U C33U,0.821
19,C18G U62A,0.142
20,C18G U62C,0.122
21,C18U C57A,0.24
22,C18U C57G,0.271
23,C18G U55C,0.198
24,C18G U55A,0.126

row,Variant,self-cleavage
1,C18U U53C,0.47
2,C18U C45A,0.792
3,G19A C27G,0.656
4,G19A C27U,0.768
5,G19A C27A,0.143
6,G19A C66G,0.146
7,G19A C66A,0.145
8,G19A C66U,0.162
9,C18U U46C,0.808
10,C18U U46A,0.964
11,C18U U46G,0.854
12,G19A C39A,0.145
13,G19A C39U,0.158
14,G19A,0.167
15,C18G U67A,0.205
16,C18G U67C,0.186
17,G19A C63G,0.152
18,G19A C63A,0.0882
19,C18U U43C,0.768
20,C18U U43G,0.357
21,G19A A42U,0.191
22,C18U C24G,0.164
23,C18U C24A,0.416
24,C18U U44G,0.726

row,Variant,self-cleavage
1,C18U U44C,0.617
2,C18U U44A,0.727
3,G19A A52C,0.183
4,G19A A52U,0.156
5,G19A A52G,0.204
6,C18U G31A,0.313
7,C18U G31U,0.295
8,C18U G31C,0.178
9,C18U C54U,0.852
10,C18U C54G,0.456
11,C18U C54A,0.305
12,C18U C34A,0.352
13,C18U U64G,0.43
14,C18U U49G,0.894
15,C18U U21C,0.389
16,C18U U21G,0.276
17,C18U U21A,0.807
18,G19A C34U,0.181
19,G19A C34A,0.201
20,C18U G56A,0.706
21,G19A A23G,0.131
22,G19A A23C,0.25
23,G19A A23U,0.154
